Data published in US20240084003A1 (SIMCERE ZAIMING PHARMACEUTICAL, published 2024).
Blank lines part the entries; values can stand above or below the binder they belong to.

Experiments:
[1] = target: T1, human CD22, endogenous on Raji cells (human, UniProt P20273 20-847); experiment: FACS, Raji cells
T1 construct: whole, on cells; Endogenous protein of the Raji cell line
T1 sequence (looked up): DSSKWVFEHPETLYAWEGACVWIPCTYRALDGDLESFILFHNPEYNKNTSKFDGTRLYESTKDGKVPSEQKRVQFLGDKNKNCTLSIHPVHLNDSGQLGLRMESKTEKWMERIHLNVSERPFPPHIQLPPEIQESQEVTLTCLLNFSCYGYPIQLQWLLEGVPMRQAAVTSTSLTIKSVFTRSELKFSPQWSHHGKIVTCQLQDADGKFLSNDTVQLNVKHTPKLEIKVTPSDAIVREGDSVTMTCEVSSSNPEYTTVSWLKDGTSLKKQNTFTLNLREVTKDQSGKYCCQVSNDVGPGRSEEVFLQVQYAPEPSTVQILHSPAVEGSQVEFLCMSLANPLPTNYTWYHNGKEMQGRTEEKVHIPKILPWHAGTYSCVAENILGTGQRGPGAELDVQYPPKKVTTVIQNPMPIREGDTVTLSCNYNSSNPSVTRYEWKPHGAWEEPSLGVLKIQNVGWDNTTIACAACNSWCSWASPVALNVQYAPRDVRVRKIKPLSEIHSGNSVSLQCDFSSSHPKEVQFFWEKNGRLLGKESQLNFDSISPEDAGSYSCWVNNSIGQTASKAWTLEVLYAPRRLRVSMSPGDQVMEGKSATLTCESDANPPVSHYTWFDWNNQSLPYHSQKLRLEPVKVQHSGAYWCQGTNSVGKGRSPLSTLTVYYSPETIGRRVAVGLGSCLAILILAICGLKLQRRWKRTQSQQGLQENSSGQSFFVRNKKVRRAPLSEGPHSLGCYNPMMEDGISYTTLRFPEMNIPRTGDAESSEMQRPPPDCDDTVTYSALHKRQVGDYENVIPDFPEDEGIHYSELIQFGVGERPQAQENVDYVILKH
Excerpt: (§1) The required cells were scale-up cultured in a T-75 cell culture flask to the logarithmic growth phase. For the adherent cell CHO-K1, the medium was aspirated, the cells were washed 2 times with PBS buffer, and then digested with trypsin. After the digestion was terminated, the cells were washed 2 times with PBS buffer. For suspension cell Raji, the medium supernatant was directly centrifuged and discarded, and the cell pellet was washed 2 times with PBS. After counting the cells in the previous step, the cell pellet was resuspended with [PBS+2% (w/w) BSA] blocking solution to 2×10⁶ cells/ml, and added to a 96-well FACS reaction plate at 50 μl/well, and then the chimeric antibody test sample was added at 50 μl/well, and incubated on ice for 2 hours. The mixture was centrifuged and washed 3 times with PBS buffer, Alexa Flour 488-labeled secondary antibody (purchased from Invitrogen, catalog number: A-11013) was added at 50 μl/well, and incubated on ice for 1 hour. The obtained mixture was centrifuged and washed 5 times with PBS, and FACS (FACS Canto™, purchased from BD Company) was used for detection and result analysis. Data analysis was performed by software (CellQuest) to obtain the mean fluorescence density (MFI)of the cells. And then software (GraphPad Prism8) was used for analysis, data fitting, and EC50 value calculation. […] The same method was used to detect the binding of the chimeric antibodies to endogenous CD22-negative cell MoLT4 cells (purchased from ATCC, CRL-1582) and CHO-K1 cells.

[2] = target: T2, human CD22, full length, on CHO-K1-human CD22 2C4 cells (human, UniProt P20273 20-847); experiment: FACS, CHO-K1-human CD22 2C4 cells
T2 construct: Full-length human CD22 (NCBI NP_001762.2) stably transfected into CHO-K1
T2 sequence: T1 sequence (looked up)
Excerpt: as §1

[3] = target: T3, murine CD22 protein (ACROBiosystems, SI2-M52Ha) (murine, UniProt P35329 22-708); experiment: ELISA, coated murine CD22, 0.1 nM Ab
T3 construct: extracellular domain; also called murine CD22-ECD; murine CD22-ECD-His
T3 sequence (looked up): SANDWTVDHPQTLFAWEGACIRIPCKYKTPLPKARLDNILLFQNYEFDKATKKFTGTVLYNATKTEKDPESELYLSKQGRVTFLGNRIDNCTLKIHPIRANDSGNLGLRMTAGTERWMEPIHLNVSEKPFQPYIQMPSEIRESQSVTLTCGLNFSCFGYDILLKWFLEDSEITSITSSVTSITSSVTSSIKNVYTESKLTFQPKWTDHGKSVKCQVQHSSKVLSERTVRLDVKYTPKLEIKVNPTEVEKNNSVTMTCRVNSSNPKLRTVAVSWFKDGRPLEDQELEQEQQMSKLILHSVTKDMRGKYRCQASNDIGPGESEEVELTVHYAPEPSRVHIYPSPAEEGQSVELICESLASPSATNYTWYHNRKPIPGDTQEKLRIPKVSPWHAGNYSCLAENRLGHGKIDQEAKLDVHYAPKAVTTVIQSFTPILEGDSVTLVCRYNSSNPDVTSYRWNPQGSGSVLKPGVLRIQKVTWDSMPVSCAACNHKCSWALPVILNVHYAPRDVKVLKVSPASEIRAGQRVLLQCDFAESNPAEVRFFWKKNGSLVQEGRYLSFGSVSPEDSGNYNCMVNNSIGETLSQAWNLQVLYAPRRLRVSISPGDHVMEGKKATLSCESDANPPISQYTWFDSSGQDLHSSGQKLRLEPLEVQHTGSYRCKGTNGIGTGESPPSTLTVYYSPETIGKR
Experimental: (§2) In order to detect the binding activity of CD22 human-murine chimeric antibodies to CD22 protein, the purified human CD22-ECD-His protein obtained in Example 2 was diluted with PBS to a final concentration of 2 μg/mL, and then added to 96-well ELISA plate at 100 μl/well. The plate was sealed with plastic film and incubated overnight at 4° C., the plate was washed 2 times with PBS the next day, and then a blocking solution [PBS+2% (w/w) BSA] was added for blocking at room temperature for 2 hours. […] After incubation at 37° C. for 2 hours, the plate was washed 3 times with PBS. HRP (horseradish peroxidase)-labeled secondary antibody (purchased from Sigma, catalog number: A0170) was added, and incubated at 37° C. for 2 hours, and the plate was washed 5 times with PBS. TMB substrate was added at 50 μl/well, and incubated at room temperature for 30 minutes, then a stop solution (1.0 N HCl) was added at 50 μl/well.
(§3) In order to detect the species cross-binding activity of the chimeric antibodies, an ELISA plate was coated with commercial murine CD22 protein (ACROBiosystems, catalog number: SI2-M52Ha) and monkey CD22 protein (ACROBiosystems, catalog number: SI2-R52Ha), respectively, and the ELISA detection was performed according to the method in Example 5.1.

[4] = target: T3, murine CD22 protein (ACROBiosystems, …); experiment: ELISA, coated murine CD22, 0.01 nM Ab
Experimental: as §2, §3

[5] = target: T3, murine CD22 protein (ACROBiosystems, …); experiment: ELISA, coated murine CD22, 10 nM Ab
Experimental: as §2, §3

[6] = target: T3, murine CD22 protein (ACROBiosystems, …); experiment: ELISA, coated murine CD22, 0.0001 nM Ab
Experimental: as §2, §3

[7] = target: T3, murine CD22 protein (ACROBiosystems, …); experiment: ELISA, coated murine CD22, 0.00001 nM Ab
Experimental: as §2, §3

[8] = target: T3, murine CD22 protein (ACROBiosystems, …); experiment: ELISA, coated murine CD22, 100 nM Ab
Experimental: as §2, §3

[9] = target: T3, murine CD22 protein (ACROBiosystems, …); experiment: ELISA, coated murine CD22, 0.001 nM Ab
Experimental: as §2, §3

B1: F1.267.9 human-murine chimeric antibody (antibody, human IgG1, kappa, V domains shown)
VH: EVQLQQSGPVLVKPGASVKMSCKASGYTFTDFYMNWAKQSHGKSLEWVGVINPYNGGINYNQKFKGKATLTVDKSSSTAYMEFNSLTSEDSAVYYCARRMEYHAMDYWGQGTSVTVSS
VL: DIVLTQSPASLAVSLGQRATISCRASESVDNYGFDFIHWYQQKPGQPPKLLIYRASNLESGIPARFSGSGSRPDFTLTINPVETDDVATYYCQQSIKDPWTFGGGTKLEIKR
notes: Chimeric, human IgG1 / kappa; VL tied by name
- EC50 [1]: 1.66 nM
- Maximum mean fluorescence intensity [1]: 26700 MFI
- EC50 [2]: 2.08 nM
- Maximum mean fluorescence intensity [2]: 31200 MFI
- OD450 [3]: 0.06 OD450
- OD450 [4]: 0.06 OD450
- OD450 [5]: 0.08 OD450
- OD450 [6]: 0.07 OD450
- OD450 [7]: 0.07 OD450
- OD450 [8]: 0.07 OD450
- OD450 [9]: 0.07 OD450

B2: F1.105.11 human-murine chimeric antibody (antibody, human IgG1, kappa, V domains shown)
VH: EVQLQQSGPVLVKPGASVKMSCKASGYTFSDYFMNWVKQSHGKSLEWIGIINSYSGGTSYNQKFKGKATLTVDKSSSTAYMELNSLTSEDSAVYYCARWMDYWGQGTSVTVSS
VL: DVQITQSPSYLAASPGETITINCRTSESISKHLAWYQEKPGKTNKLLIYSGSTLQSGIPSRFSGSGSGTDFTLTISSLEPEDFAMYYCQQHNEYPWTFGGGTKLEIKR
notes: as for B1
- EC50 [1]: 1.39 nM
- Maximum mean fluorescence intensity [1]: 24400 MFI
- EC50 [2]: 2.53 nM
- Maximum mean fluorescence intensity [2]: 28300 MFI
- OD450 [3]: 0.05 OD450
- OD450 [4]: 0.05 OD450
- OD450 [5]: 0.05 OD450
- OD450 [6]: 0.05 OD450
- OD450 [7]: 0.05 OD450
- OD450 [8]: 0.08 OD450
- OD450 [9]: 0.05 OD450

B4: F1.224.1 human-murine chimeric antibody (antibody, human IgG1, kappa, V domains shown)
VH: EVLLHQSGPELVKPGASVKISCKASGYTFTDFNMDWVRQRHGQSLEWIGDVNPNNGGTIYNQKFKGKATLTVDKSSSTVYMDLRSLTSDDTAVYYCVRLGTSDYGEAWFISWGQGTVVTVSA
VL: DIVLTQSPASLAVSLGQRATISCRASQSVSTPRYSFMHWYQQKPGQPPKLLIKYASNLESGFPARFTGSGSGTDFTLNIHPVEEEDTAAYYCQQSWAIPWTFGGGTKLEIKR
notes: as for B1
- EC50 [1]: 0.65 nM
- Maximum mean fluorescence intensity [1]: 23600 MFI
- EC50 [2]: 0.99 nM
- Maximum mean fluorescence intensity [2]: 30400 MFI
- OD450 [3]: 0.05 OD450
- OD450 [4]: 0.06 OD450
- OD450 [5]: 0.1 OD450
- OD450 [6]: 0.05 OD450
- OD450 [7]: 0.06 OD450
- OD450 [8]: 0.07 OD450
- OD450 [9]: 0.05 OD450

B6: m971-hIgG1 (antibody, V domains shown)
VH: QVQLQQSGPGLVKPSQTLSLTCAISGDSVSSNSAAWNWIRQSPSRGLEWLGRTYYRSKWYNDYAVSVKSRITINPDTSKNQFSLQLNSVTPEDTAVYYCAREVTGDLEDAFDIWGQGTMVTVSS
VL: DIQMTQSPSSLSASVGDRVTITCRASQTIWSYLNWYQQRPGKAPNLLIYAASSLQSGVPSRFSGRGSGTDFTLTISSLQAEDFATYYCQQSYSIPQTFGQGTKLEIKR
notes: Positive control anti-human CD22 antibody; V regions from US 8,591,889 B on human IgG1 constant regions
- OD450 [3]: 0.07 OD450
- OD450 [4]: 0.07 OD450
- OD450 [5]: 0.08 OD450
- OD450 [6]: 0.07 OD450
- OD450 [7]: 0.07 OD450
- OD450 [8]: 0.11 OD450
- OD450 [9]: 0.06 OD450

Continued by falling EC50 [1], values first:

- EC50 [1]: 0.45 nM
- Maximum mean fluorescence intensity [1]: 28800 MFI
- EC50 [2]: 1.18 nM
- Maximum mean fluorescence intensity [2]: 35400 MFI
- OD450 [3]: 0.05 OD450
- OD450 [4]: 0.05 OD450
- OD450 [5]: 0.06 OD450
- OD450 [6]: 0.05 OD450
- OD450 [7]: 0.06 OD450
- OD450 [8]: 0.06 OD450
- OD450 [9]: 0.05 OD450
B5: F1.231.15 human-murine chimeric antibody (antibody, human IgG1, V domains shown)
VH: QVQLQQPGAELVKPGASVKLSCKTSGYTFTIYWMQWVKQRPGRGLEWIGRIDPHSGDTHYNENFTTKVTLTVDETSNTAYMHLSGLTSEDSAVYYCARRDYSYYVLDYWGQGTSVTVSS
VL: DVVLTQTPLSLPVSLGDQASISCRSSQSLVHINGDTYLHWYLQKPGQSPKLLIYTVFNRFSGVPDRFSGSGSGTDFTLKISRVEAEDLGAYFCSQSTHVPYTFGGGTKLEIKR
notes: Chimeric: murine V regions on human IgG1 heavy constant region and kappa light constant region

- EC50 [1]: 0.23 nM
- Maximum mean fluorescence intensity [1]: 25900 MFI
- EC50 [2]: 0.63 nM
- Maximum mean fluorescence intensity [2]: 29700 MFI
- OD450 [3]: 0.06 OD450
- OD450 [4]: 0.06 OD450
- OD450 [5]: 0.06 OD450
- OD450 [6]: 0.06 OD450
- OD450 [7]: 0.06 OD450
- OD450 [8]: 0.07 OD450
- OD450 [9]: 0.06 OD450
B3: F1.7.6 human-murine chimeric antibody (antibody, human IgG1, kappa, V domains shown)
VH: EIQLQQSGPELVKPGTSVKVSCKASGYDFTRYNMYWVKQSHGKSLEWIGYIDPYNGDTRYNQKFKGKATLTVDKSSSTAYMHLNSLTSEDSAVYYCEAIYYDMEGYALDYWGQGTSVTVSS
VL: DIVMSQSPSSLAVSVGEKVTMSCKSSQSLLYSNNQKNYLAWYQQKPGQSPKKLIYWASTRESGVPDRLTGSGSGTDFTLTISSVTAEDLAVYYCQQFYSYPWTFGGGTKLEIKR
notes: as for B1
